# What was measured:
# [1] = biological target: Recombinant S1 protein of MERS-CoV (MERS-CoV) (UniProt K9N5Q8)
# [2] = biological target: Recombinant S1 protein of SARS-CoV-2 (SARS-CoV-2) (UniProt P0DTC2)
Substance,sensitivity of the test strip [1] [nM],sensitivity of the test strip [2] [nM]
"6×His tag-AVI tag-DPP4 fusion protein, biotinylated and labeled with color latex (L-SB-DPP4) (receptor; other documents disagree on this pair)",10,
"ACE2-AVI tag-6×His tag fusion protein, biotinylated and labeled with color latex (L-SB-ACE2) (receptor; other documents disagree on this pair)",,10

# From US20230212589A1
